According to patent US20200277374A1 (Alector, published 2020):

How the values were obtained:
[1] = biological target: T1, human Siglec-7 expressed on human cells (primary monocytes, dendritic cells, macrophages, NK cells, … (human, UniProt Q9Y286 19-467)); assay: FACS, human primary macrophages, 10 ug/ml mAb
T1 construct: Endogenous receptor on cells; also called Siglec-7 receptor
Description: (§1) Initial characterization of Siglec-7 antibodies involved determining their ability to bind Siglec-7 expressed on human primary monocytes, human primary macrophages, human primary dendritic cells, human primary neutrophils, and human primary natural killer (NK) cells. Cells were harvested, plated at 10⁶/ml in a 96 well plate, and incubated in 100 ul PBS containing 2% FBS, 2 mM EDTA and 10 μg/ml Mab and Fc blocking reagent for 1 hour in ice. Cells were washed twice and incubated in 100 ul PBS containing 2% FBS, 2 mM EDTA and 5 ug/ml PE-conjugated secondary antibody for 30 minutes on ice. Cells were washed twice in cold PBS and analyze by flow cytometry on a BD FACS Canto. Data analysis and calculation of MFI values was performed with FlowJo (TreeStar) software version 10.0.7.
(§2) Percent positive binding and mean fluorescent intensity (MFI) values for cell types bound by Siglec-7 antibodies are listed in Table 4A. Binding is compared to an isotype control. The antibodies bind to human primary monocytes, human primary dendritic cells, and human primary macrophages. In Table 4A, “Buffer” refers to cells that were treated only with the PBS buffer described supra; “Secondary Ab” refers to cells that were treated only with the PE-conjugated secondary antibody; “mIgG1,” “mIgG2a,” and “mIgG2b” refer to isotype control antibodies; and “RDS7” refers to commerically available anti-Siglec-7 antibody Mab1138 (R&D Systems; Cat. No. MAB 1138).

[2] = biological target: T2, Histidine-tagged human Siglec-7 (NovoProtein) (human, UniProt Q9Y286 19-357, limits assumed); assay: SPR (BiaCore T200, 25 C), antibody captured on anti-mouse IgG, Siglec-7-His 25 nM, single-concentration kinetics
T2 construct: Bought protein; also called purified Siglec-7-his tagged protein; not shown: histidine tag
T2 sequence (Q9Y286 19-357 limits assumed): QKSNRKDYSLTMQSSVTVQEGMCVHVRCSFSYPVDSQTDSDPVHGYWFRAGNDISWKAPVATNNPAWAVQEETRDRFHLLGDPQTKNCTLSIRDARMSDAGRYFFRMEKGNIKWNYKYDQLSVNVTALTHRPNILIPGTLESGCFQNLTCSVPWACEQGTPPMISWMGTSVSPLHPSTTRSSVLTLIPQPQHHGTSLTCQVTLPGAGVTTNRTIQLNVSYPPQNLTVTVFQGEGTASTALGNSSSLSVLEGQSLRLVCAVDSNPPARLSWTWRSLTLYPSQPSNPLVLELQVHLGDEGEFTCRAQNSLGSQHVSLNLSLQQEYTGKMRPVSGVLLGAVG
Description: (§3) SPR data was collected at a rate of 10 Hz at 25′ C on a BiaCore T200 instrument. Data analysis was performed using BiaCore T200 Evaluation Software, version 2.0. HBS-EP+ (100 mM HEPES, 1.5 M NaCl, 30 mM EDTA, 0.5% v/v Surfactant P20, pH 7.4) was used as running buffer and for preparing reagents.
(§4) Mouse-derived antibodies (25 nM) against Siglec-7 were captured (60 s contact time, 30 μL/min flow rate, 0 s stabilization time) on a CM5 sensor chip (GE Healthcare) immobilized with anti-mouse IgG. Histidine-tagged human Siglec-7 (NovoProtein) was then flowed over the captured anti-Siglec-7 surface (120 s contact time, 30 μL/min flow rate, 300 s dissociation time). Concentration of antigen ranged from 5 nM to 100 nM, depending on information obtained from an initial screen. Duplicate single-concentration trials were performed and bracketed by a blank (0 nM antigen) sample. The chip surface was regenerated in between cycles using 10 mM glycine-HCl, pH1.7 (60 s contact time, 30 μL/min flow rate, 60 s stabilization time). The resulting SPR signal was obtained as the difference in response from measurements performed on a blank flow cell.
(§5) Affinity constants (KD) were calculated from the ratio kd/kₐ. For one antibody (clone 1E8), we validated the single-concentration analysis with a multiple-concentration approach (five concentrations of antigen used, plus one blank).

[3] = biological target: T1, human Siglec-7 expressed on human cells …; assay: cell-based or functional assay
[4] = biological target: T1, human Siglec-7 expressed on human cells …; assay: FACS, human primary dendritic cells, 10 ug/ml mAb
Description: as §1, §2

[5] = biological target: T1, human Siglec-7 expressed on human cells …; assay: cell-based or functional assay; remark: listed apart in the source
[6] = biological target: T1, human Siglec-7 expressed on human cells …; assay: cell-based or functional assay; remark: listed apart in the source
[7] = biological target: T1, human Siglec-7 expressed on human cells …; assay: FACS titration on primary human dendritic cells, donor 359, 4 C
Description: (§6) Two Siglec-7 antibodies, 4E3 and 10B5, were titrated 2-fold for a 12-point curve with a concentration range of 6.67-0.00325 nM to assess binding and calculate half-maximal concentration (EC₅₀) for binding to primary human dendritic cells (FIG. 5B). Antibodies were serially diluted and incubated with cells in PBS with 1% BSA, 1 mM EDTA for 1 hour on ice (4° C.). Cells were pelleted and resuspended with goat anti-mouse secondary antibody conjugated with APC (BD Biosciences) at a 1:200 dilution in buffer. Secondary detection antibody was incubated for 30 minutes on ice (4° C.), then cells were washed 3 times in buffer before analyzing on a BD FACS Canto for APC MR. Data were analyzed with FlowJo Software (TreeStar).

[8] = biological target: T1, human Siglec-7 expressed on human cells …; assay: FACS, human primary monocytes, 10 ug/ml mAb
Description: as §1, §2

[9] = biological target: T1, human Siglec-7 expressed on human cells …; assay: FACS titration on primary human dendritic cells, donor 358, 4 C
Description: as §6

[10] = biological target: T3, Siglec-7-Fc (plate immobilized) (human, UniProt Q9Y286 19-357, limits assumed); assay: RBC solid adhesion assay, plate-coated Siglec-7-Fc, antibody 0.5 or 1.0 ug/ml; % of RBC binding without antibody
T3 construct: also called Siglec-7-Fc protein; immobilized Siglec-7; not shown: Fc part
T3 sequence (Q9Y286 19-357 limits assumed): as above
Outline: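 Plates coated overnight at RT with 5 μg/ml Siglec-7-Fc and blocked in PBS with BSA and 1 mM CaCl₂. Antibody (0.5 or 1.0 μg/ml) bound 1 h at RT, then RBCs (3.0×10⁶ cells/ml) added for 1 h at RT. Bound RBCs lysed and detected by peroxidase at 450 nm, expressed as % of binding without antibody.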

[11] = biological target: T2, Histidine-tagged human Siglec-7 …; assay: SPR (BiaCore T200, 25 C), antibody captured on anti-mouse IgG, Siglec-7-His 35 nM, single-concentration kinetics
Description: as §3, §4, §5

T1 sequence (Q9Y286 19-467): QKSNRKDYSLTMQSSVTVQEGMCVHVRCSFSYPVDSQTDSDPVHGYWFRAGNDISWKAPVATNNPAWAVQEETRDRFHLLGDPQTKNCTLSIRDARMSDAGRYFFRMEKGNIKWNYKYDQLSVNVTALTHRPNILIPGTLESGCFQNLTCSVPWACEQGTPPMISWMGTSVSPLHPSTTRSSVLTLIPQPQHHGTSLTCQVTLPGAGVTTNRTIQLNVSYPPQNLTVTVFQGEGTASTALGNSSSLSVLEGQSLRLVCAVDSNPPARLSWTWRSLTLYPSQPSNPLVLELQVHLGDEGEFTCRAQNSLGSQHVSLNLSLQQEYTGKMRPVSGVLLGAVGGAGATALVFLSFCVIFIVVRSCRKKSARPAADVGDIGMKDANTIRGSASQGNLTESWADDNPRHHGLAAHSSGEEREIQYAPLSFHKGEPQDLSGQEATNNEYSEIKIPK

% Positive [1] [%]	MFI [1]	% Positive [4] [%]	MFI [4]	Percent Siglec-7 Surface Expression, Macrophages [5] [%]	Percent Siglec-7 Surface Expression, Microglia [5] [%]	Percent Siglec-7 Surface Expression, NK cells [5] [%]	Percent Siglec-7 Surface Expression, DCs [6] [%]	Percent Siglec-7 Surface Expression, Monocytes [6] [%]	Percent Siglec-7 Surface Expression, U937 cells [6] [%]	% Positive [8] [%]	MFI [8]	Percent RBC Binding to Siglec-7 [10] [%]	Kd [11] [nM]	Binder	also measured
99.6	4150	99.7	2650	4.2	20.9	31.2	11.2	15.1	30.8	98.6	362	20.2		anti-Siglec-7 antibody 4E3 (antibody, V domains shown, VL FR1 there holds a Z); also called S7-4E3; mAb S7-4E3) VH: EVQLVESGGALVKPGGSLKISCAVSGFIFSNYDMSWVRQNPEKRLEWVATISSGGGYTYYPDSVKGRFTISRDNAKNALYLQMSSLRSEDTALYYCTRHGYGNYDWYFDVWGAGATVTVSS VL: QIVLTQSPAILSASPGEKVTMTCSANSSFTYMYWYQQKPGSSPRLLIFDTSNLASGVPIRFSGSGSGTSYSLTISRMEAEDTATYYCQQWSSSPLTFGAGTKLELK	Kd [2]: 0.3 nM; EC50 of Siglec-7 cell surface downregulation, primary human dendritic cells, donor 362 [3]: 0.114 nM; EC50 of Siglec-7 cell surface downregulation, primary human dendritic cells, donor 363 [3]: 0.095 nM; EC50 of Siglec-7 cell surface downregulation, primary human dendritic cells, donor 364 [3]: 0.0499 nM; EC50 of Siglec-7 cell surface downregulation, primary human dendritic cells, donor 365 [3]: 0.0336 nM; EC50 [7]: 0.301 nM; EC50 [9]: 0.336 nM
99.3	14600	99.7	5450	13.1	26.3	132	99.6	39.8	89.5	99.4	486	11.2	0.3	anti-Siglec-7 antibody 4A1 (antibody, V domains shown, Variable domains assembled from FR and CDR entries) VH: QVQLQQSGSELRSPGSSVKLSCKDFDSEVFPITYMNWVRQKPGHGFEWIGDILPSIGRTMYGEKFEDKATLDADTVSNTAYLELNSLTSEDSAIYYCARSEGYLLAYWGQGTLVTVSA VL: DVVMTQTPLSLPVSLGDQASISCRSSQSLVHSTGNIYLHWYLQKPGQSPKLLIYKVSNRFZGVPDRFSGSGSGTDFTLKISRVEAEDLGVYFCSQNTHVPYTFGGGTKLEIK	
99.3	12300	99.7	5000	13.1	28.1	124	96.9	39	86.3	99.3	472	7.9	0.4	anti-Siglec-7 antibody 7F12 (antibody, V domains shown, Variable domains assembled from FR and CDR entries) VH: QVQLQQSGSELRSPGSSVKLSCKDFDSEVFPITYMNWVRQKPGHGFEWIGDILPSIGRTMYGEKFEDKATLDADTVSNTAYLELNSLTSEDSAIYYCARSEGYLLAYWGQGTLVTVSA VL: DVLMTQTPLSLPVSLGDQASISCRSSQSLVHSTGNTYLHWYLQKPGQSPKLLIYKVSNRFSGVPDRFSGSGAGTDFTLKISRVEAEDLGVYFCSQNTHVPYTFGGGTKLEIK	
